Reference: US5994310A, “Peptide ligands for affinity purification of human Factor VIII” (Bayer Corporation, priority 1998, dated 1999)
Where no end group is shown, it is not given here.

Key:
human Factor VIII [1] = target: T1, human Factor VIII (Homo sapiens, UniProt P00451); experiment: Secondary chromatography binding assay (ELISA quantitation of column fractions); conditions: rhFVIII load 10 μg on peptide-resin column; for Elute Total μg: FVIII by ELISA in elution (Buffer C) fraction; for Flow-Through Total μg: FVIII by ELISA in flow-through fraction; for Salt Wash Total μg: FVIII by ELISA in salt wash (Buffer B) fraction
T1 construct: (the applicant)
T1 sequence (P00451 20-2351): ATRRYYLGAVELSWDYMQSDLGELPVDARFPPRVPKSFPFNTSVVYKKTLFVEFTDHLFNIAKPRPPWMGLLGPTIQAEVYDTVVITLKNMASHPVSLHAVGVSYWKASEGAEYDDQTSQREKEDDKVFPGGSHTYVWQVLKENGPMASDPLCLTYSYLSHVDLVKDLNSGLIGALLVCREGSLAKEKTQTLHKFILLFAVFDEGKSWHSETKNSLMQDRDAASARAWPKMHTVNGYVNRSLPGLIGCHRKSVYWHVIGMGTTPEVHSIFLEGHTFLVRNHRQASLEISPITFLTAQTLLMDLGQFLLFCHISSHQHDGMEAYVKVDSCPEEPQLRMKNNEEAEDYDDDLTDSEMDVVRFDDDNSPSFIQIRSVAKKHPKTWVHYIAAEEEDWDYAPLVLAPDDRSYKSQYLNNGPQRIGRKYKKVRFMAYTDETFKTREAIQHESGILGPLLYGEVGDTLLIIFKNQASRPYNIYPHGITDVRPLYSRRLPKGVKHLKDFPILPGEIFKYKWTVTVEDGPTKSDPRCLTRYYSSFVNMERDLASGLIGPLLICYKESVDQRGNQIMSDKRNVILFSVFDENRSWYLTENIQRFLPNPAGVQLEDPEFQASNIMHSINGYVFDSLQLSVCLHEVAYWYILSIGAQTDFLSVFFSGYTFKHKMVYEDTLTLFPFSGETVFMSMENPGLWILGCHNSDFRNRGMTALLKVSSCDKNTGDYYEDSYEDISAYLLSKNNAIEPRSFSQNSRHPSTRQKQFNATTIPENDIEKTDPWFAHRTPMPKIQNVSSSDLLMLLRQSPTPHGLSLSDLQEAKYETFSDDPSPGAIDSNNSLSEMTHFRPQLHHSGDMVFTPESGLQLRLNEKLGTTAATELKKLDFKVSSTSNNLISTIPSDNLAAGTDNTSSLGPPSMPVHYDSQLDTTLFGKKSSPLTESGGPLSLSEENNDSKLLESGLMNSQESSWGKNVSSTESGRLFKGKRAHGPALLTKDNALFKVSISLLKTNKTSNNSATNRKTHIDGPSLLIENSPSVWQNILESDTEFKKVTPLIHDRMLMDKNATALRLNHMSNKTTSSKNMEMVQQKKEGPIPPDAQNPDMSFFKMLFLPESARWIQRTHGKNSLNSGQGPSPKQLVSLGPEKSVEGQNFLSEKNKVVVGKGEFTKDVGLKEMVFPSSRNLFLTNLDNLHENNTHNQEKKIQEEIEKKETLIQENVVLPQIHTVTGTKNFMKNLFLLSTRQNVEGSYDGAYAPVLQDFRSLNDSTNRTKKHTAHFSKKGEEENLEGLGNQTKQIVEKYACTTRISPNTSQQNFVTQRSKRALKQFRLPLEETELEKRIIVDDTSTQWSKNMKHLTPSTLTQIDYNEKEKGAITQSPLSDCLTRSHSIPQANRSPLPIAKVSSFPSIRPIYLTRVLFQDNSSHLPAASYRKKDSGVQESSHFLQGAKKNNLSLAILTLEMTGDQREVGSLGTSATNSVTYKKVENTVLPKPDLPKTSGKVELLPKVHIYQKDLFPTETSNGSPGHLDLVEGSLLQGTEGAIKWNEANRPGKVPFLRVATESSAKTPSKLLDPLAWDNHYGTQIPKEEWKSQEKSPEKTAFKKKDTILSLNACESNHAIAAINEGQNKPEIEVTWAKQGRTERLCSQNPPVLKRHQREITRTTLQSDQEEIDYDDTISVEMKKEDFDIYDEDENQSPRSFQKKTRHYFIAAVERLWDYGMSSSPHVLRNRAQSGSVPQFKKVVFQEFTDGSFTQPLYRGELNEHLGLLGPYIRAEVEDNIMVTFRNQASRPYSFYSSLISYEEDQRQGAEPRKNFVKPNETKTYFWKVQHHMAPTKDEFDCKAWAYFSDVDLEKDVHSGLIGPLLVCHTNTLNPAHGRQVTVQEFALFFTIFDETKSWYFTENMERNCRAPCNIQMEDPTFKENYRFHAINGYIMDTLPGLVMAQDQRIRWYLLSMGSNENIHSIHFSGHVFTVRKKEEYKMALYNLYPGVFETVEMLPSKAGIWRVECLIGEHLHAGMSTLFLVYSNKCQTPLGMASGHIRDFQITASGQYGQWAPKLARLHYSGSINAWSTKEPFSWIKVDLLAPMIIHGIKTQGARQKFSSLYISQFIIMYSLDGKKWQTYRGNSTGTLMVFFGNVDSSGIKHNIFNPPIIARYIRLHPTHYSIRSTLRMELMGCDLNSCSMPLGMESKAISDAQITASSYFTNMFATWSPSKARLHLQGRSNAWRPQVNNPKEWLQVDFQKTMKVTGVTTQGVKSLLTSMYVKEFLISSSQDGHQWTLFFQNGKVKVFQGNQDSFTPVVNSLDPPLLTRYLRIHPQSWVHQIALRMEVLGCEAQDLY
Description: The secondary chromatography binding assays were performed upon a Michrom Bioresources HPLC (Auburn, Calif.). This binary system has the added advantage of a second injection loop which was outfitted with a 5 ml loop. This allowed addition of a third solvent during the HPLC run. Buffer A was 20 mM Imidazole, pH=7.0, 10 mM CaCl2, 300 mM NaCl, 0.01% Tween 80. Buffer B is the same as buffer A but with 1M NaCl and 1M CaCl2. Elution buffer (Buffer C) is the same as buffer A but with 40% ethylene glycol monomer and 250 mM CaCl2. Absorbance was monitored at 280 nm.
Confirmatory FVIII binding assays were performed in a column chromatographic format on the HPLC described above. Batch synthesized peptide-resin (substitution at 100 μmoles/g) was loaded and washed as described in Buettner, J., 1996, supra. The HPLC method injected the sample onto the column at 80 cm/hr linear velocity, allowed for flow-through of unbound protein, then stepped to 200 cm/hr for the wash with Buffer B (as described above), and then the bound protein eluted with Buffer C (as described above). FIGS. 1, 2 and 3 show the results from contacting a known amount of human Factor VIII to each of the preferred peptide-resins (sequence ID 1, 2 and 3, respectively).
Recombinant FVIII was applied to each column as described above. […] ELISA quantitation utilized a polyclonal antisera as capture antibody adsorbed onto the plate well, application of each fraction allowed the Factor VIII to adhere to the capture antibody. The making and using of polyclonal and monoclonal antibodies is well-know, and within the skill of one of ordinary skill in the art. See generally Antibodies, A Lab Manual, Harlow and Lane, eds., 1988, Cold Spring Harbor. Then a panel of 3 monoclonal antibodies were used to identify the Factor VIII and detection of these antibodies with a secondary-antibody enzyme conjugate allowed accurate quantitation of the Factor VIII. The flow-through fractions from each injection show greater than 96% target protein depletion by these peptide ligands. […] The binding avidity was weak enough to permit recovery of target protein during the elution phase of the chromatography.

human Factor VIII [2] = target: T1, human Factor VIII; experiment: Preparative hrFVIII purification by peptide resins, fractions assayed for Factor VIII activity (Coatest VIII:C/4); conditions: load KG2DEAE 136 IU; for Elute Total IU / Flow-Through Total IU / Salt Wash Total IU: Coatest
Description: Preparative batch synthesis of the preferred sequences was performed using 10 g TSK resin (Toyopearl AF-Amino-650M, TosoHaas, Inc., Montgomeryville, Pa.) as described in Buettner, J., 1996, supra. […] Three injections of an in-process sample of human Factor VIII were contacted with each resin and fractions of flow-through, salt wash and elution were tested for biological activity, protein profile by SDS-PAGE, and target protein identification by Western blot analyses, as described in Buettner, J., 1996, supra. Biological activity was defined as the ability of the column fraction to reconstitute Factor VIII-depleted plasma to thereby activate Factor X to Factor Xa, with quantitation of enzymatic activity by spectrophotometric measurement of cleaved substrate. (Coatest VIII:C/4, Chromogenix, Molndal, Sweden).
FIGS. 4, 5 and 6 show the purification chromatograms for binding of the rhFVIII to SEQ IDs 1, 2 and 3, respectively. In each figure, the bottom HPLC trace is the buffer blank injection; the three other HPLC traces are subsequent injections of the KG2DEAE sample. For each chromatogram, flow-through occurs from t=0-22 minutes; salt wash at t=26-34 minutes; elution at t=44-54 minutes. Each fraction (flow-through, salt wash and elution) was collected and assayed for Factor VIII activity by the above described Coatest assay.

Substance	Elute Total μg (human Factor VIII [1])	Flow-Through Total μg (human Factor VIII [1])	Salt Wash Total μg (human Factor VIII [1])	Elute % Recovery (human Factor VIII [2]; inj 2)	Purification (human Factor VIII [2]; inj 2)	Elute Total IU (human Factor VIII [2]; inj 2)	Flow-Through Total IU (human Factor VIII [2]; inj 2)	Salt Wash Total IU (human Factor VIII [2]; inj 2)	Elute % Recovery (human Factor VIII [2]; inj 3)	Purification (human Factor VIII [2]; inj 3)	Elute Total IU (human Factor VIII [2]; inj 3)	Flow-Through Total IU (human Factor VIII [2]; inj 3)	Salt Wash Total IU (human Factor VIII [2]; inj 3)	Elute % Recovery (human Factor VIII [2]; inj 4)	Purification (human Factor VIII [2]; inj 4)	Elute Total IU (human Factor VIII [2]; inj 4)	Flow-Through Total IU (human Factor VIII [2]; inj 4)	Salt Wash Total IU (human Factor VIII [2]; inj 4)
His-Gln-Tyr-Gly-Tyr-His (HQYGYH; not fully specified; printed as His-Gln-Tyr-Gly-Tyr-His)	10.31 µg	0.00 µg	0.85 µg	46%	1.00	62 IU	2 IU	3 IU	52%	1.53	71 IU	1 IU	3 IU	55%	1.47	75 IU	1 IU	3 IU
His-Ile-Gln-His-Tyr-His (HIQHYH; not fully specified; printed as His-Ile-Gln-His-Tyr-His)	7.26 µg	0.00 µg	0.74 µg	31%	1.22	42 IU	1 IU	4 IU	38%	1.54	52 IU	1 IU	7 IU	33%	1.48	45 IU	1 IU	9 IU
Trp-His-Tyr-Tyr-His-Gly (WHYYHG; not fully specified; printed as Trp-His-Tyr-Tyr-His-Gly)	5.31 µg	0.03 µg	0.14 µg	26%	1.15	35 IU	5 IU	2 IU	41%	1.75	56 IU	2 IU	2 IU	40%	1.64	54 IU	6 IU	5 IU
